Test results taken from the supplement of paper PMC11246515.
± gives the standard deviation of the averaged measurements.

Assay: total protein half-life in vivo (active degradation + dilution); higher = more stable protein
[1] = E. coli NCM3722 delta-clpP delta-lon delta-hslV, growth: N-lim chemostat, doubling time 6 h
[2] = E. coli NCM3722 delta-clpP, growth: N-lim chemostat, doubling time 6 h
[3] = E. coli NCM3722 delta-hslV, growth: N-lim chemostat, doubling time 6 h
[4] = E. coli NCM3722 delta-lon, growth: N-lim chemostat, doubling time 6 h
[5] = E. coli NCM3722 delta-smpB, growth: N-lim chemostat, doubling time 6 h
[6] = wild type E. coli NCM3722, growth: C-lim chemostat, doubling time 3 h
[7] = wild type E. coli NCM3722, growth: C-lim chemostat, doubling time 6 h
[8] = wild type E. coli NCM3722, growth: C-lim chemostat, doubling time 12 h
[9] = wild type E. coli NCM3722, growth: N-lim chemostat, doubling time 6 h
[10] = wild type E. coli NCM3722, growth: N-lim chemostat, doubling time 12 h
[11] = wild type E. coli NCM3722, growth: P-lim chemostat, doubling time 6 h
[12] = wild type E. coli NCM3722, growth: P-lim chemostat, doubling time 12 h

MSSRKELANAIRALSMDAVQKAKSGHPGAPMGMADIAEVLWRDFLKHNPQNPSWADRDRFVLSNGHGSMLIYSLLHLTGYDLPMEELKNFRQLHSKTPGHPEVGYTAGVETTTGPLGQGIANAVGMAIAEKTLAAQFNRPGHDIVDHYTYAFMGDGCMMEGISHEVCSLAGTLKLGKLIAFYDDNGISIDGHVEGWFTDDTAMRFEAYGWHVIRDIDGHDAASIKRAVEEARAVTDKPSLLMCKTIIGFGSPNKAGTHDSHGAPLGDAEIALTREQLGWKYAPFEIPSEIYAQWDAKEAGQAKESAWNEKFAAYAKAYPQEAAEFTRRMKGEMPSDFDAKAKEFIAKLQANPAKIASRKASQNAIEAFGPLLPEFLGGSADLAPSNLTLWSGSKAINEDAAGNYIHYGVREFGMTAIANGISLHGGFLPYTSTFLMFVEYARNAVRMAALMKQRQVMVYTHDSIGLGEDGPTHQPVEQVASLRVTPNMSTWRPCDQVESAVAWKYGVERQDGPTALILSRQNLAQQERTEEQLANIARGGYVLKDCAGQPELIFIATGSEVELAVAAYEKLTAEGVKARVVSMPSTDAFDKQDAAYRESVLPKAVTARVAVEAGIADYWYKYVGLNGAIVGMTTFGESAPAELLFEEFGFTVDNVVAKAKELL
total protein half-life in vivo [1]: 3.63 ± 0.31 h
total protein half-life in vivo [2]: 3.35 ± 0.19 h
total protein half-life in vivo [3]: 3.03 ± 0.057 h
total protein half-life in vivo [4]: 3.47 ± 0.1 h
total protein half-life in vivo [5]: 3.033 ± 0.021 h
total protein half-life in vivo [6]: 3.22 ± 0.077 h
total protein half-life in vivo [7]: 5.19 ± 0.23 h
total protein half-life in vivo [8]: 9.96 ± 0.12 h
total protein half-life in vivo [9]: 3.15 ± 0.11 h
total protein half-life in vivo [10]: 4.48 ± 0.056 h
total protein half-life in vivo [11]: 5.65 ± 0.089 h
total protein half-life in vivo [12]: 10.7 ± 0.21 h

MRLVQLSRHSIAFPSPEGALREPNGLLALGGDLSPARLLMAYQRGIFPWFSPGDPILWWSPDPRAVLWPESLHISRSMKRFHKRSPYRVTMNYAFGQVIEGCASDREEGTWITRGVVEAYHRLHELGHAHSIEVWREDELVGGMYGVAQGTLFCGESMFSRMENASKTALLVFCEEFIGHGGKLIDCQVLNDHTASLGACEIPRRDYLNYLNQMRLGRLPNNFWVPRCLFSPQE [P0A8P1]
total protein half-life in vivo [2]: 4.09 ± 0.21 h
total protein half-life in vivo [6]: 0.705 ± 0.05 h

MIPLQHGLILAAILFVLGLTGLVIRRNLLFMLIGLEIMINASALAFVVAGSYWGQTDGQVMYILAISLAAAEASIGLALLLQLHRRRQNLNIDSVSEMRG [P0AFE4]
total protein half-life in vivo [2]: 6.43 h
total protein half-life in vivo [3]: 7.8 h
total protein half-life in vivo [4]: > 8 h
total protein half-life in vivo [5]: 5.17 h
total protein half-life in vivo [6]: 3.31 h
total protein half-life in vivo [7]: 7.48 ± 0.41 h
total protein half-life in vivo [8]: 11.7 h
total protein half-life in vivo [11]: 7.16 ± 0.3 h
total protein half-life in vivo [12]: 13.1 ± 1.5 h

MIEKIWSGESPLWRLLLPLSWLYGLVSGAIRLCYKLKLKRAWRAPVPVVVVGNLTAGGNGKTPVVVWLVEQLQQRGIRVGVVSRGYGGKAESYPLLLSADTTTAQAGDEPVLIYQRTDAPVAVSPVRSDAVKAILAQHPDVQIIVTDDGLQHYRLARDVEIVVIDGVRRFGNGWWLPAGPMRERAGRLKSVDAVIVNGGVPRSGEIPMHLLPGQAVNLRTGTRCDVAQLEHVVAMAGIGHPPRFFATLKMCGVQPEKCVPLADHQSLNHADVSALVSAGQTLVMTEKDAVKCRAFAEENWWYLPVDAQLSGDEPAKLLTQLTLLASGN
total protein half-life in vivo [1]: 6.05 ± 0.42 h
total protein half-life in vivo [2]: 6.49 h
total protein half-life in vivo [3]: 6.52 ± 1.2 h
total protein half-life in vivo [4]: 6.39 ± 0.34 h
total protein half-life in vivo [5]: 5.71 ± 0.64 h
total protein half-life in vivo [6]: 3.11 ± 0.41 h
total protein half-life in vivo [7]: 7.25 ± 0.18 h
total protein half-life in vivo [8]: 8.44 h
total protein half-life in vivo [9]: 5.52 h
total protein half-life in vivo [12]: 13.8 ± 2 h

MDHSLNSLNNFDFLARSFARMHAEGRPVDILAVTGNMDEEHRTWFCARYAWYCQQMMQARELELEH
total protein half-life in vivo [1]: 2.86 h

MKLLIVEDEKKTGEYLTKGLTEAGFVVDLADNGLNGYHLAMTGDYDLIILDIMLPDVNGWDIVRMLRSANKGMPILLLTALGTIEHRVKGLELGADDYLVKPFAFAELLARVRTLLRRGAAVIIESQFQVADLMVDLVSRKVTRSGTRITLTSKEFTLLEFFLRHQGEVLPRSLIASQVWDMNFDSDTNAIDVAVKRLRGKIDNDFEPKLIQTVRGVGYMLEVPDGQ [P0ACZ8]
total protein half-life in vivo [1]: 5.08 ± 1 h
total protein half-life in vivo [2]: 4.18 ± 0.13 h
total protein half-life in vivo [3]: 4.01 ± 0.29 h
total protein half-life in vivo [4]: 4.738 ± 0.0044 h
total protein half-life in vivo [5]: 3.77 ± 0.45 h
total protein half-life in vivo [6]: 2.77 ± 0.42 h
total protein half-life in vivo [7]: 5.62 ± 0.89 h
total protein half-life in vivo [8]: 8.61 ± 0.84 h
total protein half-life in vivo [9]: 4.53 ± 0.78 h
total protein half-life in vivo [10]: 7.44 ± 0.99 h
total protein half-life in vivo [11]: 4.5 ± 0.3 h
total protein half-life in vivo [12]: 9.01 ± 0.29 h

MKVGFIGLGIMGKPMSKNLLKAGYSLVVADRNPEAIADVIAAGAETASTAKAIAEQCDVIITMLPNSPHVKEVALGENGIIEGAKPGTVLIDMSSIAPLASREISEALKAKGIDMLDAPVSGGEPKAIDGTLSVMVGGDKAIFDKYYDLMKAMAGSVVHTGEIGAGNVTKLANQVIVALNIAAMSEALTLATKAGVNPDLVYQAIRGGLAGSTVLDAKAPMVMDRNFKPGFRIDLHIKDLANALDTSHGVGAQLPLTAAVMEMMQALRADGLGTADHSALACYYEKLAKVEVTR [P0ABQ2]
total protein half-life in vivo [1]: 3.86 ± 0.51 h
total protein half-life in vivo [2]: 3.02 ± 0.079 h
total protein half-life in vivo [3]: 3.5 ± 0.65 h
total protein half-life in vivo [4]: 3.57 ± 0.23 h
total protein half-life in vivo [5]: 2.9 ± 0.15 h
total protein half-life in vivo [6]: 2.9 ± 0.065 h
total protein half-life in vivo [7]: 5.47 ± 0.28 h
total protein half-life in vivo [8]: 9.56 ± 1 h
total protein half-life in vivo [9]: 3.13 ± 0.46 h
total protein half-life in vivo [10]: 4.13 ± 0.28 h
total protein half-life in vivo [11]: 5.31 ± 0.075 h
total protein half-life in vivo [12]: 10.3 ± 0.15 h
